4 molecules from US20240092849A1 (MIT, published 2024) can be followed below.

The target of test [1] is T1, Mcl-1 (human, UniProt Q07820 172-327, limits assumed).
T1 construct: Recombinant protein in solution assays; It was biotinylated in the on-bead screens; also called human Mcl-1; BioMcl-1 (biotinylated, in the bead screens)
As to the kind of experiment: biolayer interferometry, biotinylated peptide on streptavidin probe. The source says:
We used biolayer interferometry to measure the kinetics of binding of stapled peptides to Mcl-1 (FIG. 1(b)). We generated biotinylated stapled peptides and attached these to a streptavidin-modified probe surface.
In general terms: In BLI a coated tip is dipped into the sample, and binding shifts an interference pattern.

For test [2], the target named is T1, Mcl-1. The experiment in a line: fluorescence anisotropy competition with fluoresceinated Bim 21mer for Mcl-1. From the text: The standard errors reported are over three experiments.
Position 2e is usually conserved as small (alanine, glycine, serine) in natural BH3 sequences.
On the technique in general: Polarisation of emitted light reports the rotation of a fluorescent probe.

Another test has as its target murine Mcl-1 (murine, UniProt P97287 1-331). The experiment in a line: cell-based or functional assay.

Bridge positions count the residues as written; N and C are the ends. Square brackets hold non-standard residues; d marks the D form. Ends that are not written are not given here. alpha‑4‑pentenylAla = alpha-4-pentenyl alanine, stapling residue joined by ring-closing olefin metathesis; Cha = N[C@@H](CC1CCCCC1)C(=O)O; Nle = CCCC[C@H](N)C(=O)O; Aib = CC(C)(N)C(=O)O

The term Kd denotes the free concentration of one partner at which half of the binding sites on the other are occupied at equilibrium, for simple one-to-one binding. Low values mean tighter binding, high ones weaker binding. In general, IC50 refers to the concentration at which inhibition is half-maximal. High values mean a need for much substance, low ones inhibition by little substance.

T1 sequence (Q07820 172-327 limits assumed): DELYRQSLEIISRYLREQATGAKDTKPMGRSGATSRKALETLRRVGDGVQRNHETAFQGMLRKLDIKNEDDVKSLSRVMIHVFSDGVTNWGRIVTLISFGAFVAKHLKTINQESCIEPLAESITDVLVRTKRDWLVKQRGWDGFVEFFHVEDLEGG
Chain of murine Mcl-1 (P97287 whole entry): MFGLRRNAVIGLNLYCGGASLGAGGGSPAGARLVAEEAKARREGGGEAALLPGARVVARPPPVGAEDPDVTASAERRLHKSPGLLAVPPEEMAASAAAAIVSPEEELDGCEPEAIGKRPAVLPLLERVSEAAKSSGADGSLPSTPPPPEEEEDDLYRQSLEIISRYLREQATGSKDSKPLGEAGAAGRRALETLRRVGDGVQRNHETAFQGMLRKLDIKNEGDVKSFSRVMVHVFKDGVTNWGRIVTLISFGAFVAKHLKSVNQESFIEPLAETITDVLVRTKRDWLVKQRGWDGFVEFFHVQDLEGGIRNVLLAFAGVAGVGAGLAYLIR

B1: biotinylated M3d (peptide)
peptide: IW[Nle][Aib]QG[Cha]RRLGDEI[alpha‑4‑pentenylAla]AYY[alpha‑4‑pentenylAla]RR
modifications: staple 15-19; also: biotinylated, site and linker not given here
notes: also called M3d (biotinylated stapled peptide)
In turn, B1 displayed a Kd with Mcl-1 [1] of 0.005 µM. Regarding IW[Nle][Aib]QGLRRLGDEI[alpha‑4‑pentenylAla]AYY[alpha‑4‑pentenylAla]RR (staple 15-19, Stapled peptide IWBAibQGLRRLGDEIXAYYXRR) [M2d], the IC50 in the test with Mcl-1 [2] was found to be 0.106 µM.

B2: M3d (peptide)
peptide: IW[Nle][Aib]QG[Cha]RRLGDEI[alpha‑4‑pentenylAla]AYY[alpha‑4‑pentenylAla]RR
modifications: staple 15-19
notes: Stapled peptide IWBAibQGChaRRLGDEIXAYYXRR
Take B2: the “BH3 profiling (mitochondrial membrane integrity, JC1 dye) in Mcl-1/Myc 2640 cells, EC50” value with murine Mcl-1 stood at 0.03 µM. This molecule also showed an IC50 with Mcl-1 [2] of 0.072 µM.

B3: M1d (peptide)
peptide: IW[Nle]TQGLRRLGDEI[alpha‑4‑pentenylAla]AYY[alpha‑4‑pentenylAla]RR
modifications: staple 15-19
notes: Truncated, stapled variant of MS1, usually printed 'Mld'; also called Mld
B3 showed an IC50 with Mcl-1 [2] of 0.35 µM.
